Source: patent US20170182124A1, “FGF21 Derivatives and Uses Thereof” (Novo Nordisk A/S, priority 2014, published 2017)
Substitutions are numbered along the chain they refer to. Marks after values point to notes of the source that are not given here.

B1: S{Beta-181}-2-aminoethylsulfanyl-Ala[Gln121, Leu168, Cys181]FGF21 (protein)
chain: AHPIPDSSPLLQFGGQVRQRYLYTDDAQQTEAHLEIREDGTVGGAADQSPESLLQLKALKPGVIQILGVKTSRFLCQRPDGALYGSLHFDPEACSFRELLLEDGYNVYQSEAHGLPLHLPGQKSPHRDPAPRGPARFLPLPGLPPALPEPPGILAPQPPDVGSSDPLSLVGPSQGRSPSYAC
modifications: N-terminal Ala; cysteamine disulfide on Cys181
B2: S{Beta-178}-2-aminoethylsulfanyl-Ala[Gln121, Leu168, Cys178]FGF21 (protein)
chain: B1 chain with S179C, C182S
modifications: N-terminal Ala; cysteamine disulfide on Cys178
B3: S{Beta-179}-2-aminoethylsulfanyl-Ala[Gln121, Leu168, Cys179]FGF21 (protein)
chain: B1 chain with Y180C, C182S
modifications: N-terminal Ala; cysteamine disulfide on Cys179
B4: S{Beta-180}-2-aminoethylsulfanyl-Ala[Gln121, Leu168, Cys180, des181]FGF21 (protein)
chain: AHPIPDSSPLLQFGGQVRQRYLYTDDAQQTEAHLEIREDGTVGGAADQSPESLLQLKALKPGVIQILGVKTSRFLCQRPDGALYGSLHFDPEACSFRELLLEDGYNVYQSEAHGLPLHLPGQKSPHRDPAPRGPARFLPLPGLPPALPEPPGILAPQPPDVGSSDPLSLVGPSQGRSPSYC
modifications: N-terminal Ala; cysteamine disulfide on Cys180
B5: Ala[Gln121, Leu168]FGF21 (protein)
chain: B1 chain with C182S
modifications: N-terminal Ala
B6: S{Beta-176}-2-aminoethylsulfanyl-Ala[Gln121, Leu168, Cys176]FGF21 (protein)
chain: B1 chain with S177C, C182S
modifications: cysteamine-protected Cys176
B7: S{Beta-179}-[2-[2-[[2-[2-[2-[[2-[2-[2-[[(4S)-4-carboxy-4-(15-carboxypentadecanoyl-amino)butanoyl]amino]ethoxy]ethoxy]acetyl]amino]ethoxy]ethoxy]acetyl]amino]-ethylamino]-2-oxoethyl]-Ala[Gln121,Leu168, … (protein)
chain: HPIPDSSPLLQFGGQVRQRYLYTDDAQQTEAHLEIREDGTVGGAADQSPESLLQLKALKPGVIQILGVKTSRFLCQRPDGALYGSLHFDPEACSFRELLLEDGYNVYQSEAHGLPLHLPGQKSPHRDPAPRGPARFLPLPGLPPALPEPPGILAPQPPDVGSSDPLSLVGPSQGRSPSCAS
B8: S{Beta-180}-[2-[2-[[2-[2-[2-[[2-[2-[2-[[(4S)-4-carboxy-4-(19-carboxynonadecanoyl-amino)butanoyl]amino]ethoxy]ethoxy]acetyl]amino]ethoxy]ethoxy]acetyl]amino]-ethylamino]-2-oxoethyl]-Ala[Gln121,Leu168,C … (protein)
chain: B7 chain with C179Y, A180C
B9: S{Beta-180}-[2-[2-[[2-[2-[2-[[2-[2-[2-[[(4S)-4-carboxy-4-(17-carboxyheptadecanoyl-amino)butanoyl]amino]ethoxy]ethoxy]acetyl]amino]ethoxy]ethoxy]acetyl]amino]-ethylamino]-2-oxoethyl]-Ala[Gln121,Leu168, … (protein)
chain: HPIPDSSPLLQFGGQVRQRYLYTDDAQQTEAHLEIREDGTVGGAADQSPESLLQLKALKPGVIQILGVKTSRFLCQRPDGALYGSLHFDPEACSFRELLLEDGYNVYQSEAHGLPLHLPGQKSPHRDPAPRGPARFLPLPGLPPALPEPPGILAPQPPDVGSSDPLSLVGPSQGRSPSYC
B10: S{Beta-181}-[2-[2-[[2-[2-[2-[[2-[2-[2-[[(4S)-4-carboxy-4-(19-carboxynonadecanoyl-amino)butanoyl]amino]ethoxy]ethoxy]acetyl]amino]ethoxy]ethoxy]acetyl]amino]-ethylamino]-2-oxoethyl]-Ala[Gln121,Leu168,C … (protein)
chain: B7 chain with C179Y, S181C
B11: S{Beta-181}-[2-[2-[[2-[2-[2-[[2-[2-[2-[[(4S)-4-carboxy-4-(17-carboxyheptadecanoyl-amino)butanoyl]amino]ethoxy]ethoxy]acetyl]amino]ethoxy]ethoxy]acetyl]amino]-ethylamino]-2-oxoethyl]-Met[Cys181]FGF21 (protein)
chain: B1 chain with A1M, Q122N, L169M

Target: 3T3-L1 adipocytes (Mus musculus, UniProt P16092+Q99N32)
Assay: Glucose uptake in 3T3-L1 adipocytes
Assay type: cell-based
Settings: stimulated 20 hours, 3H-deoxy-glucose
Method: The C-terminal modified analogues were tested for their ability to increase glucose uptake in 3T3-L1 mouse adipocytes. The following assay was used for determining the biological activity, or potency, of FGF21 analogues and derivatives of the invention.
The in vitro potency may also be determined in an assay with mouse 3T3-L1 adipocytes by testing the FGF21 analogues and derivatives for their ability to increase glucose uptake into adipocytes. Differentiated 3T3-L1 adipocytes endogenously express FGFR1c and BKL. The 3T3-L1 cells are unresponsive to FGF21 until after differentiated as differentiation lead to expression of the co-receptor BKL. Activation of the FGFR1 receptor/BKL complex increase the expression of glucose transporter 1 (GLUT1) and therefore FGF21 agonists will lead to an increased amount of glucose taken into the adipocytes in a dose responsive manner.
Mouse 3T3-L1 fibroblasts (e.g. available from ATCC, catalogue no. CL-173) were maintained in basal medium (DMEM (4500 mg/I Glucose) with 10% Fetal Bovine Serum (FBS) and 1% Penicillin/Streptomycin). The cells are not allowed to reach confluence and should be passed (transferred to new vials) before reaching approx. 60% of confluency (by visual inspection).
For the glucose uptake assay, cells were 15.000 cells/well in a 96 well plate (BIOCOAT), and when they reached confluency (high density, with a view to have differentiated adipose cells made), the medium was changed from basal medium to basal medium containing Troglitazone, IBMX, Dexamethasone (commercially available from, e.g., Sigma) and human insulin (commercially available from, e.g., Novo Nordisk A/S).
The cells were used 7-9, days after initiation of differentiation. The cells were stimulated with increasing concentrations (0-300 nM) of the FGF21 analogues or derivatives of the invention for 20 hours in basal medium. Before addition of 3H-deoxy-glucose (in what follows: the tracer) the cells were washed in warm (approximately 37° C.) assay buffer (PBS with 1 mM MgCl2 and 2 mM CaCl2), HEPES and 0.1% Human serum albumin) and the cells were incubated with the tracer for 1 hour. This incubation was terminated by washing twice in ice cold assay buffer. The cells were lysed with Triton X-100 and lysates transferred to a 96 wells plate, microscint-40 (commercially available from, e.g., Perkin Elmer) was added and amount of tracer counted in a TOP-counter (e.g. a Packard top-counter from Perkin Elmer). The EC50 and Emax of the FGF21 compound in question were calculated. The results which are shown in tables 4-5 below indicate the EC50 (potency) and Emax (efficacy) of the FGF21 analogues and derivatives, respectively.

Sequence of 3T3-L1 adipocytes (Q99N32 whole entry): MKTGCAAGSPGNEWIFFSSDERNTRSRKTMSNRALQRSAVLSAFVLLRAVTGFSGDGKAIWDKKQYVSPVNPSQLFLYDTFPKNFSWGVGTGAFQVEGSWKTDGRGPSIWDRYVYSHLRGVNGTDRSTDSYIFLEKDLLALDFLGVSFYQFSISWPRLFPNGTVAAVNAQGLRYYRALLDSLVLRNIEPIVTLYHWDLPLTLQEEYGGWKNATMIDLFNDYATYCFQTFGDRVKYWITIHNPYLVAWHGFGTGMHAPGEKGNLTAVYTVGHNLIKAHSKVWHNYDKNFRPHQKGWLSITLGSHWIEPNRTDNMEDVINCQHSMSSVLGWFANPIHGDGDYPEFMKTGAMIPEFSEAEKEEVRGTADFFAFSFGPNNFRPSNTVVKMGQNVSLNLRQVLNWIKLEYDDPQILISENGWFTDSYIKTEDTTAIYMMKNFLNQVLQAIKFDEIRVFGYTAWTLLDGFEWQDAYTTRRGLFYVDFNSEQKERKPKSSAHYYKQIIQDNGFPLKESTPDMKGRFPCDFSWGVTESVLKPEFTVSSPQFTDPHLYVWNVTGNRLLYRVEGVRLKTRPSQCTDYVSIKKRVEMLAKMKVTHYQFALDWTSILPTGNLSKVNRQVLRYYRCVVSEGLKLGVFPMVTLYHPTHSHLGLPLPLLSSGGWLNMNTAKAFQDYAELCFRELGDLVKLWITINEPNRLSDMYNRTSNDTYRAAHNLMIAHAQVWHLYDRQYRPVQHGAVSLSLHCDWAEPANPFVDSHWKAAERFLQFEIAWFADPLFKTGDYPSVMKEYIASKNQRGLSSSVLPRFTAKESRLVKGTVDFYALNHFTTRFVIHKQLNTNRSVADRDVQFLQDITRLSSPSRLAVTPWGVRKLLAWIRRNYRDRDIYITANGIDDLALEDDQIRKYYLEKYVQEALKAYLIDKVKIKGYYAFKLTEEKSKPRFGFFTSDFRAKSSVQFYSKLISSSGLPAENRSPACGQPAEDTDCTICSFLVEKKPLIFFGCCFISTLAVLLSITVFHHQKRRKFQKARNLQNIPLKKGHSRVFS
Sequence of 3T3-L1 adipocytes (P16092 22-822): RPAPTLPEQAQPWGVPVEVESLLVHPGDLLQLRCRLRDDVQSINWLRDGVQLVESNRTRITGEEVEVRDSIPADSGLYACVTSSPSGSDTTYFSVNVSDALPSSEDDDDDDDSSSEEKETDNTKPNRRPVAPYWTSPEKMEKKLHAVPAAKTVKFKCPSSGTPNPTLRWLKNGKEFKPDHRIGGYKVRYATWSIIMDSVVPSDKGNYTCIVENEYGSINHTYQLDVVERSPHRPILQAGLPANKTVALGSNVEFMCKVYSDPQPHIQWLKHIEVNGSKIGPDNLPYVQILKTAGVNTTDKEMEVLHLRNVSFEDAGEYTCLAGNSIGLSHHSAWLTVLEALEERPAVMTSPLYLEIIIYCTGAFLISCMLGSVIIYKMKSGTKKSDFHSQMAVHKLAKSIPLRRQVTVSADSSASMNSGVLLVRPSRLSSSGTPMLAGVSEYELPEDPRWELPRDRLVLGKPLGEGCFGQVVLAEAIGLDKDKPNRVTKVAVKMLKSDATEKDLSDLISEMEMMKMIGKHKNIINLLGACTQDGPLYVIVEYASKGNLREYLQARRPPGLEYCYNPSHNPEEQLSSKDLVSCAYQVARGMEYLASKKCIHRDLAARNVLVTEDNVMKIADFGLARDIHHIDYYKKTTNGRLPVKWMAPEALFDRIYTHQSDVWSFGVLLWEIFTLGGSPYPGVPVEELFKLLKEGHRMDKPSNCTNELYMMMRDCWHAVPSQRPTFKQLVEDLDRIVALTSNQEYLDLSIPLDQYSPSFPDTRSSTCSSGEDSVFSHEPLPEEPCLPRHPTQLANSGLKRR

Molecule | EC50 [nM] | Glucose uptake Emax [%]
B1 | 5 | 74
B2 | 50 | 69
B3 | 25 | 77
B4 | 73 | 72
B5 | 3.1 | 85
B6 | 73 | 84
B7 | 107 | 54
B8 | 24 | 53
B9 | 8 | 71
B10 | 410 | 57

Target: FGF receptor/BKL complex
Assay: FGF receptor potency in an Erk phosphorylation assay in HEK293 overexpressing human BKL
Assay type: cell-based
Settings: HEK293/BKL cells, pERK after 12 minutes, absence of HSA; read-out: EC50
Outline: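 pERK after 12 min analogue exposure at 37° C. was quantified by AlphaScreen SureFire in lysates of beta-klotho-transfected HEK293 cells. Assay medium was DMEM with 0.02% Tween20, run both without albumin and with 0.1% final HSA to probe albumin binding. Cells were starved 2 h in basal medium first. Absolute EC50 reported.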

Sequence of FGF receptor/BKL complex (Q86Z14 whole entry, one chain of several): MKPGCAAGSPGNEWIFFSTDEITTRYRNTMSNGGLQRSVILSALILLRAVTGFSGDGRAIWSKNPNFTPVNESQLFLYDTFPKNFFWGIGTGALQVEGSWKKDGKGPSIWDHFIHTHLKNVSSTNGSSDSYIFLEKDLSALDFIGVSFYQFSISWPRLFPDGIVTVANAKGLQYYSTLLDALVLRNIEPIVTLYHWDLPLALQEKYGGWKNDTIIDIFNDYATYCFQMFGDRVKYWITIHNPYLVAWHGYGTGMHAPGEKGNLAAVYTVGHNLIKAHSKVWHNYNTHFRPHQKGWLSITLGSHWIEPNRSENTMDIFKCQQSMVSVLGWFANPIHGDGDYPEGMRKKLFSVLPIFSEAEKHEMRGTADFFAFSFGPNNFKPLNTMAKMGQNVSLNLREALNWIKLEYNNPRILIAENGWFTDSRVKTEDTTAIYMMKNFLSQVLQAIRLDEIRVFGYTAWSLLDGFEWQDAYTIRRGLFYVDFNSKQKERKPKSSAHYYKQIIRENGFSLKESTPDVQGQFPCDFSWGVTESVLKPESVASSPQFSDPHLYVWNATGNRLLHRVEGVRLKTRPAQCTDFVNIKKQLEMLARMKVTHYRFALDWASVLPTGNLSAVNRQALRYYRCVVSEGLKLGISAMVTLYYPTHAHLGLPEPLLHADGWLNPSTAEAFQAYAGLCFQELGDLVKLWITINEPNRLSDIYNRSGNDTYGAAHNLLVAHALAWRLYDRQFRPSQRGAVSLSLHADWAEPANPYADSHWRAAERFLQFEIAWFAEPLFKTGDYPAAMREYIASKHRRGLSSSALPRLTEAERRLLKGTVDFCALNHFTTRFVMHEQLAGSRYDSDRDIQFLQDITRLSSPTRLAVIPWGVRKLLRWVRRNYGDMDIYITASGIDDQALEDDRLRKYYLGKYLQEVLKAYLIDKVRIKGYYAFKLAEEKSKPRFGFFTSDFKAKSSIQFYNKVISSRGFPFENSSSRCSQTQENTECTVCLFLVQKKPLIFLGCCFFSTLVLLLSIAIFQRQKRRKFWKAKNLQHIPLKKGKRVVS

Molecule | EC50 [nM]
B1 | 27
B2 | 105
B3 | 69
B4 | 20
B5 | 2
B6 | 227
B7 | 107
B8 | 5
B9 | 8
B10 | 58

Same assay, conditions: HEK293/BKL cells, pERK after 12 minutes, presence of 0.1% HSA; read-out: EC50 (0.1% HSA)

Molecule | EC50 [nM]
B7 | 134
B8 | 133
B9 | 20
B10 | 434

Same assay, conditions: absence of HSA

Molecule | potency in HEK293/BKL cells compared with MetFGF21 or corresponding analogue (in words)
B1 | only slightly decreased as compared to MetFGF21

System: not listed separately
Assay: Body weight reduction in lean mice
Assay type: in vivo, lean C57BL mice
Settings: s.c. 1 mg/kg BID for 7 days, change from baseline day 1 to 7
Method: In order to determine the in vivo potency of the FGF21 derivatives the effect on body weight was studied in lean C57BL mice after subcutaneous (s.c.) administration. It has previously been shown that the weight loss induced by FGF21 in lean mice is predictive of the effect in obese mice and therefore lean mice are considered a good screening model.
The compounds were administered s.c. 1 mg/kg either once (QD) or twice (BID) daily in 10 mM phosphate, 2% (w/vol) glycerol, 500ppm (=0.05%) polysorbate 80, pH=8.15, (2 ml/kg) for 7 days (n=7-8). The respective vehicle treated groups (control) were treated with 10 mM phosphate, 2% (w/vol) glycerol, 500ppm (=0.05%) polysorbate 80, pH=8.15, (2 ml/kg) s.c. twice daily for 7 days (n=6-8). Body weight was measured before dosing and again after 7 days treatment.

Molecule | Mean Δ body weight (%)
B5 | −1.98** %

System: not listed separately
Assay: Pharmacokinetic study in mice (i.v.)
Settings: terminal half-life, single intravenous dose of 20 mg/kg, lean C57bl mice
Method: This was done in a pharmacokinetic (PK) study, where the terminal half-life of the analogue in question was determined. By terminal half-life is meant the time it takes to halve a certain plasma concentration in the terminal elimination phase.
The pharmacokinetic profile of FGF21 analogues was tested in normal lean C57b1 mice, n =2-3 (approximately 30 grams). FGF21 compounds were dosed as a single intravenous dose of 20 mg/kg (approximately 5 ml/kg).
The plasma levels of the FGF21 compounds were determined using Fibroblast Growth Factor-21 Human ELISA (available from BioVendor, catalogue no. RD191108200R). The PC based software, WnNonLin version 6.3 from Pharsight Corportion, Cary N.C., was used for the pharmacokinetic calculation.

Molecule | Half-life mice [h]
B10 | 19
B11 | 12
